Patent US20250109206A1 (CENTESSA PHARMACEUTICALS UK, published 2025)
Numbering of substitutions follows the chain as printed. In names and notes the source's numbering stands.

T1: Cyno PD-L1 (cynomolgus, UniProt Q9NZQ7 19-127 (human entry), limits assumed)
T1 construct: also called cynomolgus PD-L1
T1 chain: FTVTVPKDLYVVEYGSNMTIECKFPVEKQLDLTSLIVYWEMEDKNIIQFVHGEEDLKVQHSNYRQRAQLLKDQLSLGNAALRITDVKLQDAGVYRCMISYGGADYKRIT

B1: LB213 after incubation with MMP12 (bispecific antibody)
heavy: not shown
light: not shown
chain: SCPPCPAPEAAGAPSVFLFPPKPKDTLMISRTPEVTCVVVDVSHEDPEVKFNWYVDGVEVHNAKTKPREEQYNSTYRVVSVLTVLHQDWLNGKEYKCKVSNKALPAPIEKTISKAKGQPREPQVCTLPPSRDELTKNQVSLSCAVKGFYPSDIAVEWESNGQPENNYKTTPPVLDSDGSFFLVSKLTVDKSRWQQGNVFSCSVMHEALHNHYTQKSLSLSPGK
notes: Digest of LB213 with human MMP12; a mixture of products; also called MMP12 treated LB213; digested LB213
B2: LB218 (intact) (bispecific antibody, human IgG1, kappa, lambda)
heavy: not shown
light: not shown
chain: B1 chain
notes: Asymmetric LockBody, uncleaved; also called intact LB218
B3: LB213 (intact) (bispecific antibody, human IgG1, kappa, lambda)
heavy: not shown
light: not shown
chain: B1 chain
notes: Asymmetric LockBody, uncleaved; also called intact LB213
B4: LB218 after incubation with MMP12 (bispecific antibody)
heavy: not shown
light: not shown
chain: B1 chain
notes: Digest of LB218 with human MMP12; a mixture of products; also called MMP12 treated LB218; digested LB218
B5: CD3-IgG-001 (antibody, V domains shown)
VH: EVQLVESGGGLVQPGGSLRLSCAASGFTFNTYAMNWVRQAPGKGLEWVARIRSKYNNYATYYADSVKDRFTISRDDSQSILYLQMNSLKTEDTAVYYCVRHGNFGNSYVSWFAYWGQGTLVTVSS
VL: QAVVTQEPSLTVSPGGTVTLTCRSSTGAVTTSNYANWVQQKPDHLPRALIGGTNKRAPGTPARFSGSLLGDKAALTLSGVQPEDEAEYYCALWYSNLWVFGGGTKLTVL
B6: mouse SP34 IgG (antibody, V domains shown)
VH: B5 VH with G15K, R19K, S87N, V95M
VL: QAVVTQESALTTSPGETVTLTCRSSTGAVTTSNYANWVQEKPDHLFTGLIGGTNKRAPGVPARFSGSLIGDKAALTITGAQTEDEAIYFCALWYSNLWVFGGGTKLTVL
B7: CD3-IgG-002 (antibody, V domains shown)
VH: B5 VH with A49G, D68G, Q78K, S79N, I80S, V99A
VL: B5 VL with T60V, L77I, V80A, E87I
B8: Anti-PD-L1 Fab mut-03 (S104W) (Fab, V domains shown)
VH: QVQLVQSGAEVKKPGSSVKVSCKTSGDTFSTYAISWVRQAPGQGLEWMGGIIPIFGKAHYAQKFQGRVTITADESTSTAYMELSSLRSEDTAVYFCARKFHFVWGSPFGMDVWGQGTTVTVSS
VL: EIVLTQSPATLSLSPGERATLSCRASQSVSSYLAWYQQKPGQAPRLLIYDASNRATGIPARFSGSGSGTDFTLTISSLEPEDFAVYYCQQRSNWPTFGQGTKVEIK
notes: Fab format; VH variant with WT VL; constant domains of the Fab not specified; also called mut-3
B9: Anti-PD-L1 Fab mut-42 (I54Q) (Fab, V domains shown)
VH: B8 VH with I54Q, W104S
VL: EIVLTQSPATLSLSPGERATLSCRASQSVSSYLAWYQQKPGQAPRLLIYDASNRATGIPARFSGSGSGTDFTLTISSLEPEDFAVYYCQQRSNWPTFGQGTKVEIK
notes: Fab format; VH variant with WT VL; constant domains of the Fab not specified
B10: Anti-PD-L1 Fab mut-28 (S104N) (Fab, V domains shown)
VH: B8 VH with W104N
VL: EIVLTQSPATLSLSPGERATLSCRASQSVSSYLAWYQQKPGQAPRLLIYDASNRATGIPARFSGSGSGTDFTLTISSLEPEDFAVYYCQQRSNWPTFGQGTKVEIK
notes: as for B9
B11: Anti-PD-L1 Fab mut-15 (K57W) (Fab, V domains shown)
VH: B8 VH with K57W, W104S
VL: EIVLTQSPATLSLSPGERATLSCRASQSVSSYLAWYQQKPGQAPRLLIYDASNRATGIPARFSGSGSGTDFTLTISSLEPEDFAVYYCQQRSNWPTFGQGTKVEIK
notes: as for B9
B12: Anti-PD-L1 Fab mut-20 (I54Y) (Fab, V domains shown)
VH: B8 VH with I54Y, W104S
VL: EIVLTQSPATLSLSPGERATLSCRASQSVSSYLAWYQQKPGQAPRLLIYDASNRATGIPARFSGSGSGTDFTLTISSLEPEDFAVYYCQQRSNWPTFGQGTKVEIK
notes: as for B9
B13: Anti-PD-L1 Fab mut-06 (S104R) (Fab, V domains shown)
VH: B8 VH with W104R
VL: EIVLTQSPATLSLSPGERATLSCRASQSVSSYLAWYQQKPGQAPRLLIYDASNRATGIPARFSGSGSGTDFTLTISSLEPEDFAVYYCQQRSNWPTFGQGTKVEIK
notes: Fab format; VH variant with WT VL; constant domains of the Fab not specified; also called mut-6; Mut-6
B14: Anti-PD-L1 Fab mut-48 (T31Q) (Fab, V domains shown)
VH: B8 VH with T31Q, W104S
VL: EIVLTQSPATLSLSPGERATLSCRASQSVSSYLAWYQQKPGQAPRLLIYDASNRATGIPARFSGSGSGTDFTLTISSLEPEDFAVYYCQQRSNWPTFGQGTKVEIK
notes: as for B9
B15: Anti-PD-L1 Fab mut-46 (I54R) (Fab, V domains shown)
VH: B8 VH with I54R, W104S
VL: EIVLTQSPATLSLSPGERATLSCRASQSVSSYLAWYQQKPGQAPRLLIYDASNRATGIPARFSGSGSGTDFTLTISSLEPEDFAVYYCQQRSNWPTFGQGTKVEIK
notes: as for B9
B16: Anti-PD-L1 Fab mut-34 (K57M) (Fab, V domains shown)
VH: B8 VH with K57M, W104S
VL: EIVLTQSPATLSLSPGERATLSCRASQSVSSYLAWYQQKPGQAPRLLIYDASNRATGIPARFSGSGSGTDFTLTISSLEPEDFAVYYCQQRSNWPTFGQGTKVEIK
notes: as for B9
B17: Anti-PD-L1 Fab mut-44 (I52F) (Fab, V domains shown)
VH: B8 VH with I52F, W104S
VL: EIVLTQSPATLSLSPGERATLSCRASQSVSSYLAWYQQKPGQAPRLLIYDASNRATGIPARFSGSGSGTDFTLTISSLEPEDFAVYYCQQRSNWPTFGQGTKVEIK
notes: as for B9
B18: Anti-PD-L1 Fab mut-23 (G56H) (Fab, V domains shown)
VH: B8 VH with G56H, W104S
VL: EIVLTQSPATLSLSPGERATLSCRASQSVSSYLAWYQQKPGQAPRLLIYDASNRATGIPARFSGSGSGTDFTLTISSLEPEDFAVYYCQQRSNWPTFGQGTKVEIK
notes: as for B9
B19: Anti-PD-L1 Fab mut-27 (K57D) (Fab, V domains shown)
VH: B8 VH with K57D, W104S
VL: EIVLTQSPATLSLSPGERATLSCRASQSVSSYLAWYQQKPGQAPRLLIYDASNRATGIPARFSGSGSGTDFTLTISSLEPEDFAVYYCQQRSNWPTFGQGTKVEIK
notes: as for B9
B20: Anti-PD-L1 Fab mut-22 (A33H) (Fab, V domains shown)
VH: B8 VH with A33H, W104S
VL: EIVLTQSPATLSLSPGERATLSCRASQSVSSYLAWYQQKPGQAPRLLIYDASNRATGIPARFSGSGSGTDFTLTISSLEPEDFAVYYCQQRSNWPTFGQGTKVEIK
notes: as for B9
B21: Anti-PD-L1 Fab mut-07 (I54W) (Fab, V domains shown)
VH: B8 VH with I54W, W104S
VL: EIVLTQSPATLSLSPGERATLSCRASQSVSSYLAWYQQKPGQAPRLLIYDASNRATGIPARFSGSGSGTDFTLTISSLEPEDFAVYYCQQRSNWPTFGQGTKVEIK
notes: Fab format; VH variant with WT VL; constant domains of the Fab not specified; also called mut-7
B22: Anti-PD-L1 Fab mut-04 (I54K) (Fab, V domains shown)
VH: B8 VH with I54K, W104S
VL: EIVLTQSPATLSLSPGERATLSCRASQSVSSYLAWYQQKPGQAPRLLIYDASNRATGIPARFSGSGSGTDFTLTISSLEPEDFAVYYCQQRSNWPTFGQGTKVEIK
notes: Fab format; VH variant with WT VL; constant domains of the Fab not specified; also called mut-4
B23: Anti-PD-L1 Fab mut-49 (G56N) (Fab, V domains shown)
VH: B8 VH with G56N, W104S
VL: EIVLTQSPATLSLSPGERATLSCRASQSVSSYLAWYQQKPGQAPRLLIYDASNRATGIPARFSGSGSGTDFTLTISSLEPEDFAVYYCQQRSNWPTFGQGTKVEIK
notes: as for B9
B24: Anti-PD-L1 Fab mut-08 (K57R) (Fab, V domains shown)
VH: B8 VH with K57R, W104S
VL: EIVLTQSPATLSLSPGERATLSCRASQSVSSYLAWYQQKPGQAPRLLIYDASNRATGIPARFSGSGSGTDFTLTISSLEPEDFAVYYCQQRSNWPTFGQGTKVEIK
notes: Fab format; VH variant with WT VL; constant domains of the Fab not specified; also called mut-8
B25: Anti-PD-L1 Fab mut-50 (Q62E) (Fab, V domains shown)
VH: B8 VH with Q62E, W104S
VL: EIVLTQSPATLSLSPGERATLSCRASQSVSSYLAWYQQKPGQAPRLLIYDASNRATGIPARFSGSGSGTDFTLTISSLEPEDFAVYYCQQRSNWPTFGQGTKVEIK
notes: as for B9
B26: Anti-PD-L1 Fab mut-47 (T31R) (Fab, V domains shown)
VH: B8 VH with T31R, W104S
VL: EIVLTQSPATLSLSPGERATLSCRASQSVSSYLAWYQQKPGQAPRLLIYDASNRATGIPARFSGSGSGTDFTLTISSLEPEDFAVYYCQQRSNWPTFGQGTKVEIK
notes: as for B9
B27: Anti-PD-L1 Fab mut-51 (S104R, G56Q, T31Q) (Fab, V domains shown)
VH: B8 VH with T31Q, G56Q, W104R
VL: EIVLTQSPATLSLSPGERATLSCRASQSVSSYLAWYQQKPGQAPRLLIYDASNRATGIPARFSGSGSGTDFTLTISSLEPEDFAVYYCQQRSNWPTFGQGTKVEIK
notes: as for B9
B28: Anti-PD-L1 Fab mut-14 (S104D) (Fab, V domains shown)
VH: B8 VH with W104D
VL: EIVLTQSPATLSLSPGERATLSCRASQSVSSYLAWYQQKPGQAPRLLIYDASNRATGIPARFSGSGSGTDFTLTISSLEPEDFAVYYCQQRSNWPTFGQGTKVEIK
notes: as for B9
B29: Anti-PD-L1 Fab mut-54 (G56Q, T31Q) (Fab, V domains shown)
VH: B8 VH with T31Q, G56Q, W104S
VL: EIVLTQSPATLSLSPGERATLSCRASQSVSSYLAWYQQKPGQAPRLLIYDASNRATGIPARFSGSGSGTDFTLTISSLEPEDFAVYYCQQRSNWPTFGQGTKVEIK
notes: as for B9
B30: Anti-PD-L1 Fab mut-39 (K57F) (Fab, V domains shown)
VH: B8 VH with K57F, W104S
VL: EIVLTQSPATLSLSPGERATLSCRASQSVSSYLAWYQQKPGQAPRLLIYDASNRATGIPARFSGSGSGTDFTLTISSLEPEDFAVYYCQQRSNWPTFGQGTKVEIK
notes: as for B9
B31: Anti-PD-L1 Fab mut-52 (S104R, G56Q) (Fab, V domains shown)
VH: B8 VH with G56Q, W104R
VL: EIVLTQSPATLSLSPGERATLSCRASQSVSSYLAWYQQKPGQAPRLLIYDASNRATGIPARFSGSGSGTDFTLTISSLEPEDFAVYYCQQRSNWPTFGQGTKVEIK
notes: as for B9
B32: Anti-PD-L1 Fab mut-53 (S104R, T31Q) (Fab, V domains shown)
VH: B8 VH with T31Q, W104R
VL: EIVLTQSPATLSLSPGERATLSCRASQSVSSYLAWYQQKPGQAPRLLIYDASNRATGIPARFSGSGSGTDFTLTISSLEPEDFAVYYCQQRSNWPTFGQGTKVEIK
notes: as for B9
B33: Anti-PD-L1 Fab mut-43 (G56Q) (Fab, V domains shown)
VH: B8 VH with G56Q, W104S
VL: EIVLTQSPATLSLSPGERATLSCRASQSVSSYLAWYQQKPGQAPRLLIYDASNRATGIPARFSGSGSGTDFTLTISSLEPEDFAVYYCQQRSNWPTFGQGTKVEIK
notes: as for B9

Target: T2, Human PD-L1 (human, UniProt Q9NZQ7 19-127, limits assumed)
T2 construct: also called huPD-L1; hPD-L1
Test: ELISA on plate-coated human PD-L1, sample pre-incubated with MMP12 for 5 min

Row | EC50 (read off the curve) | Binder
1 | ~0.2 nM | B1

Target: T2, Human PD-L1
Test: ELISA on plate-coated human PD-L1, corrected absorbance 450-570 nm
Description: For ELISA binding assays, 384 well or 96 well plates were coated with […] and incubated overnight at 4° C., protected from light. Plates were washed twice with PBS/0.05% Tween 20 before blocking with block buffer (3% milk protein in PBS) for 1 hour at room temperature. Next, test agent or controls were loaded and incubated for 1 hour at room temperature. Plates were then washed three times with PBS/0.05% Tween 20. Finally, HRP conjugated secondary antibody, diluted 1/5,000 in block buffer, was added and incubated for 1 hour at room temperature. Plates were again washed three times with PBS/0.05% Tween before addition of TMB substrate and incubation for 6 minutes at room temperature. Subsequently, the reaction was stopped with stop solution. Absorbance was read at 450 nm and 570 nm. Absorbance at 570 nm was subtracted from absorbance at 450 nm for each plate.

Row | EC50 (read off the curve) | Binder
2 | ~0.2 nM | B2
3 | ~0.2 nM | B3

Target: T2, Human PD-L1
Test: ELISA on plate-coated human PD-L1, sample pre-incubated with MMP12 for 60 min

Row | EC50 (read off the curve) | Binder
4 | ~0.7 nM | B4

Target: human CD3 on Jurkat cells (human, UniProt P07766 23-207)
Test: cell-based or functional assay

Sequence of human CD3 on Jurkat cells (P07766 23-207): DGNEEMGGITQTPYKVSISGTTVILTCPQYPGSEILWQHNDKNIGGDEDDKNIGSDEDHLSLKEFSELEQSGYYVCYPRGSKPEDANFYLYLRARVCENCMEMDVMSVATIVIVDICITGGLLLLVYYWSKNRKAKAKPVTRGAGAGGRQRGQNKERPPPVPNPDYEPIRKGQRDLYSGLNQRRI

Row | EC50, CD3 activation signal in Jurkat reporter cell line (luciferase) | fold difference of apparent EC50 against SP34 / Anti-CD3-IgG-001, Jurkat reporter | Binder
5 | 0.2 nM | – | B5
6 | 0.2 nM | – | B6
7 | 0.9 nM | ~5 fold | B7

Target: T2, Human PD-L1
Test: ELISA on plate-coated human PD-L1, sample pre-incubated with MMP12 for 15 min

Row | EC50 (read off the curve) | Binder
8 | ~0.2 nM | B4

Target: T2, Human PD-L1
Test: ELISA on plate-coated human PD-L1, sample pre-incubated with MMP12 for 60 min
Remark: another data set of the same source

Row | EC50 (read off the curve) | Binder
9 | ~0.5 nM | B1

Target: T1, Cyno PD-L1
Test: SPR, Fab

Row | Kd | binding result | Binder
10 | 13.6 nM | – | B8
11 | 5.98 nM | – | B9
12 | 5.51 nM | – | B10
13 | 10.5 nM | – | B11
14 | 15.9 nM | – | B12
15 | 2.86 nM | – | B13
16 | 3.24 nM | – | B14
17 | 12.7 nM | – | B15
18 | 5.82 nM | – | B16
19 | 6.85 nM | – | B17
20 | 3.02 nM | – | B18
21 | – | no binding | B19
22 | 20 nM | – | B20
23 | 143 nM | – | B21
24 | 10.8 nM | – | B22
25 | 3.53 nM | – | B23
26 | 6.48 nM | – | B24
27 | 4.82 nM | – | B25
28 | 9.32 nM | – | B26
29 | 0.18 nM | – | B27
30 | 29.3 nM | – | B28
31 | 0.631 nM | – | B29
32 | 3.96 nM | – | B30
33 | 0.298 nM | – | B31
34 | 0.288 nM | – | B32
35 | 2.73 nM | – | B33

Target: T2, Human PD-L1
Test: SPR, Fab

Row | Kd | Binder
36 | 1.1 nM | B8
37 | 3.99 nM | B9
38 | 0.501 nM | B10
39 | 1.69 nM | B11
40 | 0.875 nM | B12
41 | 0.0857 nM | B13
42 | 0.249 nM | B14
43 | 1.04 nM | B15
44 | 3.58 nM | B16
45 | 0.542 nM | B17
46 | 0.195 nM | B18
47 | 5.58 nM | B19
48 | 1.84 nM | B20
49 | 4.25 nM | B21
50 | 0.857 nM | B22
51 | 0.224 nM | B23
52 | 0.489 nM | B24
53 | 0.124 nM | B25
54 | 0.594 nM | B26
55 | 0.0157 nM | B27
56 | 3.36 nM | B28
57 | 0.0722 nM | B29
58 | 1.54 nM | B30
59 | 0.0214 nM | B31
60 | 0.0217 nM | B32
61 | 0.204 nM | B33

Target: T2, Human PD-L1
Test: ELISA on plate-coated human PD-L1, sample pre-incubated with MMP12 for 30 min

Row | EC50 (read off the curve) | Binder
62 | ~0.3 nM | B1

Target: T2, Human PD-L1
Test: ELISA on plate-coated human PD-L1, sample pre-incubated with MMP12 for 15 min
Remark: another data set of the same source

Row | EC50 (read off the curve) | Binder
63 | ~0.2 nM | B1

Target: T2, Human PD-L1
Test: ELISA on plate-coated human PD-L1, sample pre-incubated with MMP12 for 5 min
Remark: another data set of the same source

Row | EC50 (read off the curve) | Binder
64 | ~0.1 nM | B4

Target: T2, Human PD-L1
Test: ELISA on plate-coated human PD-L1, sample pre-incubated with MMP12 for 30 min
Remark: another data set of the same source

Row | EC50 (read off the curve) | Binder
65 | ~0.5 nM | B4
